This passage reports stoichiometry N results from paper PMC9401124.

In the test the target is EsxT (M. abscessus), co-expressed with EsxU in M. smegmatis (Mycobacterium abscessus ATCC 19977). In words: SEC-MALS; purified EsxU/EsxT complex injected at 10 mg/mL on S200 5/150, 0.8 mL/min, 20 mM Tris pH 8.0, 300 mM NaCl, 5% glycerol. On the technique in general: Size exclusion chromatography separates by hydrodynamic size, large species first.

Take “EsxU (M. abscessus), co-expressed with EsxT in M. smegmatis (natural protein)”: the stoichiometry N (in general, the number of molecules, sites or subunits per partner or assembly) was 1.
